# T1: human CD39 expressed on the cell surface (human, UniProt P49961 1-510)
# T1 construct: full-length human CD39 transfected into CHO-K1, or endogenous human CD39 on primary cells and cell lines, or human CD39 of knock-in mice; also called Human CD39-CHO-K1; cellular human CD39
# T1 sequence: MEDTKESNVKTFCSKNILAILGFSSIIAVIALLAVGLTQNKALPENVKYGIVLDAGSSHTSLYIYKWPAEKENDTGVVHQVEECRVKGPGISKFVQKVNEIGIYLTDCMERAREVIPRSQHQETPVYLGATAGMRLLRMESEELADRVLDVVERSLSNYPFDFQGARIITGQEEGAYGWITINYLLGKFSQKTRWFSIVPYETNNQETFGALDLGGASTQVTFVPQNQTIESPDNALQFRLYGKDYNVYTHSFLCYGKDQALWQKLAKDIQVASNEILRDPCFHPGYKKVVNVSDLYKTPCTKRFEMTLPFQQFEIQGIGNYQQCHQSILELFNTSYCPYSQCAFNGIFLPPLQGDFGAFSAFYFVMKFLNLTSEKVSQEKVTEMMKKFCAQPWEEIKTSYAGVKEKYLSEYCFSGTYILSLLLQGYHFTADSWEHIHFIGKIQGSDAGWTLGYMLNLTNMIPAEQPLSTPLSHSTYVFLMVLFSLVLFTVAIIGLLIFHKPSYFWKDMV
# T2: soluble His-tagged human CD39 ECD protein (human, UniProt P49961 38-478)
# T2 construct: also called human CD39 ECD His-tagged antigen; Sino Biological Cat. No. 16020-H08B
# T2 sequence: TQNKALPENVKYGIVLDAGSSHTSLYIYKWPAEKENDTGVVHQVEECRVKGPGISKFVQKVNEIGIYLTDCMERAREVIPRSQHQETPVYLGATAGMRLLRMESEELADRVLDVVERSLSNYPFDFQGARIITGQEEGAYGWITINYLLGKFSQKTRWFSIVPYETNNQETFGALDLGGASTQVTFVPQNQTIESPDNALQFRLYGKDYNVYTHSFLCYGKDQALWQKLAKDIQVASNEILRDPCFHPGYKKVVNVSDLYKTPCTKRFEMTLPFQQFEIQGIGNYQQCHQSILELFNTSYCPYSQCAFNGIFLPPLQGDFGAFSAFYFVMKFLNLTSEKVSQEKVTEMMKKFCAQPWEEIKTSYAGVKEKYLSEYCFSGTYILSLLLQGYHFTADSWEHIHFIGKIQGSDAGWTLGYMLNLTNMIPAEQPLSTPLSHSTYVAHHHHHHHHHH
# T3: recombinant human CD39 (soluble) (human, UniProt P49961 38-478, limits assumed)
# T3 sequence (looked up): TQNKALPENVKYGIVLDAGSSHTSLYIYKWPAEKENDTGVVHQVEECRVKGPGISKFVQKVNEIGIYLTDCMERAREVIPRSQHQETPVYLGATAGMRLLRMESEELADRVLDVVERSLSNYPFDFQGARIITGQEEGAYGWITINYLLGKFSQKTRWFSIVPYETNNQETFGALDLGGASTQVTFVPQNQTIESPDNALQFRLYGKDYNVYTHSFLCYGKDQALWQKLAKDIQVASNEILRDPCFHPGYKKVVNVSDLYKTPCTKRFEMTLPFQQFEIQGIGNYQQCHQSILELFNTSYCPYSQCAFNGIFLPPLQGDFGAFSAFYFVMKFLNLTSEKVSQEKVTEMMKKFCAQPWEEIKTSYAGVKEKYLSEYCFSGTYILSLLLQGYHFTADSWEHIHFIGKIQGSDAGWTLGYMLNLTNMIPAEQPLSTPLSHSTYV
# T4: cynomolgus monkey CD39 expressed on HEK-293 cells (cynomolgus monkey, UniProt P49961 5-510 (human entry))
# T4 construct: also called Cynomolgus Monkey CD39-HEK293
# T4 chain: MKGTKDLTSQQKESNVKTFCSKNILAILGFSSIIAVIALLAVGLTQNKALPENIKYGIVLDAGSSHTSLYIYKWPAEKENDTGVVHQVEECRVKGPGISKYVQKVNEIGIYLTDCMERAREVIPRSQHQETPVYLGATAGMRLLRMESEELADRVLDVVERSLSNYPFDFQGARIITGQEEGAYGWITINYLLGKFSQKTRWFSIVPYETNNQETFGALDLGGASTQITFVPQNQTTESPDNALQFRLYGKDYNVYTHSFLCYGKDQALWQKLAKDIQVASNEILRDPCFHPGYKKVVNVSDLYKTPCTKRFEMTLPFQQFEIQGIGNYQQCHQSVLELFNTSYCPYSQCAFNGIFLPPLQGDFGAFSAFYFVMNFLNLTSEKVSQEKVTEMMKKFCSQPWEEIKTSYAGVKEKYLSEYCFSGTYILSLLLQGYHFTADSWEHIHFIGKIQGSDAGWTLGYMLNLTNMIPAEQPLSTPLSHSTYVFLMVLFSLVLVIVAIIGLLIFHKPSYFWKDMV
# Columns and labels:
# [1] = molecular target: T1, human CD39 expressed on the cell surface; experiment: flow cytometry on human PBMCs gated on CD19+ B cells, 400 uM ATP (N = 6)
# [2] = molecular target: T1, human CD39 expressed on the cell surface; experiment: cell-based or functional assay
# [3] = molecular target: T1, human CD39 expressed on the cell surface; experiment: flow cytometry on human PBMCs gated on CD19+ B cells, 0 uM ATP (N = 8)
# [4] = molecular target: T2, soluble His-tagged human CD39 ECD …; experiment: SPR, bivalent avidity mode (CD39 ECD immobilized, antibody analyte); Rmax 896.01 RU surface
# [5] = molecular target: T1, human CD39 expressed on the cell surface; experiment: cell-based or functional assay; remark: listed apart in the source
# [6] = molecular target: T2, soluble His-tagged human CD39 ECD …; experiment: SPR, bivalent avidity mode; average over six surface densities
# [7] = molecular target: T1, human CD39 expressed on the cell surface; experiment: cell-based or functional assay; remark: listed apart in the source
# [8] = molecular target: T3, recombinant human CD39 (soluble); experiment: cell-based or functional assay
# [9] = molecular target: T1, human CD39 expressed on the cell surface; experiment: flow cytometry on human PBMCs gated on CD19+ B cells, one donor, 0 µM ATP
# [10] = molecular target: T2, soluble His-tagged human CD39 ECD …; experiment: SPR, monovalent affinity mode; average over seven surface densities
# [11] = molecular target: T1, human CD39 expressed on the cell surface; experiment: competition flow cytometry on MOLP-8 cells, competitor hu39.1_IGG4.P-AF647
# [12] = molecular target: T1, human CD39 expressed on the cell surface; experiment: flow cytometry on human PBMCs gated on CD19+ B cells, one donor, 400 µM ATP
# [13] = molecular target: T2, soluble His-tagged human CD39 ECD …; experiment: SPR, bivalent avidity mode (CD39 ECD immobilized, antibody analyte); Rmax 420.45 RU surface
# [14] = molecular target: T2, soluble His-tagged human CD39 ECD …; experiment: SPR, bivalent avidity mode (CD39 ECD immobilized, antibody analyte); Rmax 524.16 RU surface
# [15] = molecular target: T1, human CD39 expressed on the cell surface; experiment: flow cytometry on human PBMCs gated on CD14+ monocytes, 0 uM ATP (N = 8)
# [16] = molecular target: T1, human CD39 expressed on the cell surface; experiment: flow cytometry on human PBMCs gated on CD14+ monocytes, 400 uM ATP (N = 6)
# [17] = molecular target: T2, soluble His-tagged human CD39 ECD …; experiment: SPR, bivalent avidity mode; average over six surface densities; average of different density surfaces; CD39 ECD immobilized
# [18] = molecular target: T1, human CD39 expressed on the cell surface; experiment: cell-based or functional assay; remark: listed apart in the source
# [19] = molecular target: T1, human CD39 expressed on the cell surface; experiment: FACS on CHO-K1 cells overexpressing human CD39
# [20] = molecular target: T1, human CD39 expressed on the cell surface; experiment: cell-based or functional assay; remark: listed apart in the source
# [21] = molecular target: T1, human CD39 expressed on the cell surface; experiment: flow cytometry on purified human CD14+ monocytes, 400 uM ATP
# [22] = molecular target: T2, soluble His-tagged human CD39 ECD …; experiment: SPR (Biacore 8K), antibody captured via anti-human Fc, CD39 ECD analyte
# [23] = molecular target: T4, cynomolgus monkey CD39 expressed on …; experiment: FACS on HEK293 cells overexpressing cynomolgus CD39
# [24] = molecular target: T1, human CD39 expressed on the cell surface; experiment: flow cytometry on purified human CD14+ monocytes, 0 uM ATP
EC50 [1] [nM],"IC50, CD39 enzymatic inhibition on human monocytes, 20 uM ATP [2] [nM]","Max Inhibition (%), human monocytes, 20 uM ATP [2] [%]",EC50 [3] [nM],"IC50, CD39 enzymatic inhibition on THP-1 cells, 20 uM ATP [5] [nM]","Max Inhibition (%), THP-1 cells [5] [%]","IC50, CD39 enzymatic inhibition on human monocytes, 400 uM ATP [7] [nM]","Max Inhibition (%), human monocytes, 400 uM ATP [7] [%]","IC50, inhibition of recombinant CD39 enzymatic activity, 20 uM ATP [8] [nM]","Max Inhibition (%), recombinant CD39, 20 uM ATP [8] [%]",EC50 (read off the curve) [9] [nM],Kd [10] [nM],EC50 (read off the curve) [12] [nM],Binder,further results
1,1,69,1,0.53,62,0.7,63,0.3,86,~2,0.19,~2,"hu31.4_IGG1.AA (antibody, human IgG1, kappa, L234A L235A, humanized variant of antibody 31, human IgG1 L234A/L235A) heavy: not shown light: DIVLTQSPALAVSPGQRATITCRTQQTVDHYGTTYMNWYQQKPGQPPKLLIYLASSLASGVPARFSGSGSGTDFTLTINPVEADDTANYYCQQSRNLWTFGGGTKVEIKRTVAAPSVFIFPPSDEQLKSGTASVVCLLNNFYPREAKVQWKVDNALQSGNSQESVTEQDSKDSTYSLSSTLTLSKADYEKHKVYACEVTHQGLSSPVTKSFNRGEC",Kd [4]: 0.105 nM; Kd [6]: 0.3 nM; Max Competition [11]: -22%
0.3,0.1,69,0.2,0.075,55,0.083,62,0.19,80,~0.2,0.24,~0.2,"hu39.5_IGG1.AA (antibody, human IgG1, kappa, L234A L235A, humanized variant of antibody 39, human IgG1 L234A/L235A) heavy: not shown light: DTVLTQSPASLAVSPGQRATITCRASEGVKSYMHWYQQKPGQPPKLLIYKASNLASGVPARFSGSGSGTDFTLTINPVEADDTANYYCQQSWNDPTFGQGTKLEIKRTVAAPSVFIFPPSDEQLKSGTASVVCLLNNFYPREAKVQWKVDNALQSGNSQESVTEQDSKDSTYSLSSTLTLSKADYEKHKVYACEVTHQGLSSPVTKSFNRGEC",Kd [13]: 0.00998 nM; Kd [14]: 0.00656 nM; EC50 [15]: 0.3 nM; EC50 [16]: 0.5 nM; Kd [17]: 0.01 nM
–,0.15,72,–,0.062,83,0.2,60,–,–,–,–,–,"hu39.5_IGG4.P (antibody, human IgG4 S228P, kappa, humanized variant of antibody 39 (VH3 + VL1 with I2T), IgG4 (S228P)) heavy: not shown light: DTVLTQSPASLAVSPGQRATITCRASEGVKSYMHWYQQKPGQPPKLLIYKASNLASGVPARFSGSGSGTDFTLTINPVEADDTANYYCQQSWNDPTFGQGTKLEIKRTVAAPSVFIFPPSDEQLKSGTASVVCLLNNFYPREAKVQWKVDNALQSGNSQESVTEQDSKDSTYSLSSTLTLSKADYEKHKVYACEVTHQGLSSPVTKSFNRGEC","Human THP-1 CD39 inhibition IC50 [18]: 0.1 nM; EC50 [19]: 0.44 nM; IC50, CD39 enzymatic inhibition on SK-MEL-5 cells, 20 uM ATP [20]: 0.14 nM; Max Inhibition (%), SK-MEL-5 cells [20]: 66%; EC50 [21]: 10 nM; Kd [22]: 0.121 nM; EC50 [23]: 0.088 nM; EC50 [24]: 3.9 nM"

# Reference: patent US20250084178A1 (ARCUS BIOSCIENCES, published 2025)
